{"source": "patent US20200115466A1", "about": "(NANOCRUISE PHARMACEUTICAL, published 2020)", "data": [{"target": "T1, MUC1 on the surface of lung cancer cell line H838 (UniProt P15941 24-1255, limits assumed, tumour-type glycosylation (GalNAc epitope RPAPGS(GalNAc)TAPPAHG), as the filing describes the antigen)", "T1 construct": "whole, on cells; No MUC1-negative control of H838 is reported; also called antigen", "T1 sequence (P15941 24-1255 limits assumed)": "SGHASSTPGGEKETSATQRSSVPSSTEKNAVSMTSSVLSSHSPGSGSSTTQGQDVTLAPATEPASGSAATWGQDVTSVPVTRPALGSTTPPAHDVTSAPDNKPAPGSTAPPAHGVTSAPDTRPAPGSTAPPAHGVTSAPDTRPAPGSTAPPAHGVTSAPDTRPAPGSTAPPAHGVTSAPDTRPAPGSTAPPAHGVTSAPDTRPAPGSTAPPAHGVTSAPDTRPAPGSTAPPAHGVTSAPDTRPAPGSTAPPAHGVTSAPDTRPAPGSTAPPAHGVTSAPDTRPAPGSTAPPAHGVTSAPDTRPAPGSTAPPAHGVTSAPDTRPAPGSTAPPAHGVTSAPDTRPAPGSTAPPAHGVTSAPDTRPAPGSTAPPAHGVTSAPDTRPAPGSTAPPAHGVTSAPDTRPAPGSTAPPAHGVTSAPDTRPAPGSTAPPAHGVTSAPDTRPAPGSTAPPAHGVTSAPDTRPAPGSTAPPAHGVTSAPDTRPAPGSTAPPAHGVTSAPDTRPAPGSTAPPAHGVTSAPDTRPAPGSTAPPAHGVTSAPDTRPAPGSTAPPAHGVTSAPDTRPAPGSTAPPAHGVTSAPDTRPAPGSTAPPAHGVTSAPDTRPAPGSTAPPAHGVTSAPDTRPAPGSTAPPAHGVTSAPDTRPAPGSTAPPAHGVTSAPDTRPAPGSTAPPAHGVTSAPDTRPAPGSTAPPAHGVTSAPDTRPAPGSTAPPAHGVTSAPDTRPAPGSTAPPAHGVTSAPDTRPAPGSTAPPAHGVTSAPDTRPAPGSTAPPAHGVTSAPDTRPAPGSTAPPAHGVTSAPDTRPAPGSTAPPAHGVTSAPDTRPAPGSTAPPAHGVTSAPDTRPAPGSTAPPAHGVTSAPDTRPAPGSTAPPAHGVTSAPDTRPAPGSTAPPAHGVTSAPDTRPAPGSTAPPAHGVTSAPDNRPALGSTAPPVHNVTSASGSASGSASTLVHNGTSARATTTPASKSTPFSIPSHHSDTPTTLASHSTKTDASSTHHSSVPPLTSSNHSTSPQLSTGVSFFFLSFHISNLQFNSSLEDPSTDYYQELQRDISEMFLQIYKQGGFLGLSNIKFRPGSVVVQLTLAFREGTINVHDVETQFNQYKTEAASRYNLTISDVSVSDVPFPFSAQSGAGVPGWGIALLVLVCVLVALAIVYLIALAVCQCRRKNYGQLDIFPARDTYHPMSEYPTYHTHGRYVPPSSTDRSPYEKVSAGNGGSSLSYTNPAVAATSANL", "assay": "flow cytometry, surface staining of H838 cells, PE anti-human IgG", "experimental": "Lung cancer cell line H838 was obtained from the University of Texas M.D. Anderson Cancer Center. Cells were cultured in 10% RPMI 1640 medium. Different concentrations of chimeric antibody or humanized antibodies were used as primary antibody for staining, washed three times with PBS, then incubated with PE-conjugated mouse-anti-human IgG (BioLegend). The stained cells were analyzed by FACS Caliber flow cytometer (BD Biosciences, San Jose, Calif.).", "units": {"Minimum concentration of binding to lung cancer cell line H838": "µg/mL"}, "values": [{"binder": "humanized 16A antibody hVH2hVL2 (antibody, human IgG1, lambda, V domains shown, CDR-grafted humanized antibody; also called Humanized HC 2 (H2988) with Humanized LC2 (L2988)) VH: EVQLVESGGGLVQPGGSLRLSCAVSGIDFSRYWMSWVRQAPGKGLEWVGEITPDSNTINYVPSVKGRFTISRDNAKNSLYLQMNSLRAEDTAVYYCASYYEGFAYWGQGTLVTVSS VL: QAVVTQEPSLTVSPGGTVTLTCGSSTGAVITSNYANWVQQKPGQAPTGLIGRTYNKVPWTPARFSGSLLGDKAALTLSGAQPEDEAEYFCALWYSNHFVFGGGTKLTVLG", "Minimum concentration of binding to lung cancer cell line H838": 0.025}, {"binder": "humanized 16A antibody hVH4hVL2 (antibody, human IgG1, lambda, V domains shown, CDR-grafted humanized antibody; also called Humanized HC 4 (H2990) with Humanized LC2 (L2988)) VH: EVQLVESGGGLVQPGGFLRLSCVVSGIDFSRYWMSWVRQAPGKGLEWVGEITPDSNTINYVPSVKGNFGISRDNAKNSLFLQMNSLRAEDTAVYFCASYYEGFAYWGQGTLVTVSS VL: QAVVTQEPSLTVSPGGTVTLTCGSSTGAVITSNYANWVQQKPGQAPTGLIGRTYNKVPWTPARFSGSLLGDKAALTLSGAQPEDEAEYFCALWYSNHFVFGGGTKLTVLG", "Minimum concentration of binding to lung cancer cell line H838": 0.05}, {"binder": "humanized 16A antibody hVH1hVL2 (antibody, human IgG1, lambda, V domains shown, CDR-grafted humanized antibody; also called Humanized HC 1 (H2987) with Humanized LC2 (L2988)) VH: EVQLVESGGGLVQPGGSLRLSCAVSGIDFSRYWMSWVRQAPGKGLEWVAEITPDSNTINYVPSVKGRFTISRDNAKNSLYLQMNSLRAEDTAVYYCASYYEGFAYWGQGTLVTVSS VL: QAVVTQEPSLTVSPGGTVTLTCGSSTGAVITSNYANWVQQKPGQAPTGLIGRTYNKVPWTPARFSGSLLGDKAALTLSGAQPEDEAEYFCALWYSNHFVFGGGTKLTVLG", "Minimum concentration of binding to lung cancer cell line H838": 0.025}, {"binder": "humanized 16A antibody hVH3hVL2 (antibody, human IgG1, lambda, V domains shown, CDR-grafted humanized antibody; also called Humanized HC 3 (H2989) with Humanized LC2 (L2988)) VH: EVKLVESGGGLVQPGGSLRLSCAVSGIDFSRYWMSWVRQAPGKGLEWVGEITPDSNTINYVPSVKGRFTISRDNAKNSLYLQMNSLRAEDTAVYFCASYYEGFAYWGQGTLVTVSS VL: QAVVTQEPSLTVSPGGTVTLTCGSSTGAVITSNYANWVQQKPGQAPTGLIGRTYNKVPWTPARFSGSLLGDKAALTLSGAQPEDEAEYFCALWYSNHFVFGGGTKLTVLG", "Minimum concentration of binding to lung cancer cell line H838": 0.025}, {"binder": "humanized 16A antibody hVH5hVL2 (antibody, human IgG1, lambda, V domains shown, CDR-grafted humanized antibody; also called Humanized HC 5 (H2991) with Humanized LC2 (L2988)) VH: EVQLVESGGGLVQPGGSLRLSCVVSGIDFSRYWMSWVRQAPGKGLEWVGEITPDSNTINYVPSVKGRFGISRDNAKNSLYLQMNSLRAEDTAVYFCASYYEGFAYWGQGTLVTVSS VL: QAVVTQEPSLTVSPGGTVTLTCGSSTGAVITSNYANWVQQKPGQAPTGLIGRTYNKVPWTPARFSGSLLGDKAALTLSGAQPEDEAEYFCALWYSNHFVFGGGTKLTVLG", "Minimum concentration of binding to lung cancer cell line H838": 0.025}, {"binder": "mouse-human chimeric antibody 16A (antibody, human IgG1, lambda, V domains shown, Murine 16A VH and VL joined to human IgG1 constant region and human lambda 2 light chain; also called chimeric 16A; 16A chimeric antibody) VH: EVKLHQSGGGLVQPGGFLKISCVVSGIDFSRYWMSWVRRAPGKGLEWIGEITPDSNTINYVPSLKDNFGISRDNAKNTLFLQMTKVRSEDTALYFCASYYEGFAYWGQGTLVTVSA VL: QAVVTQESALTTSPGETVTLTCRSSTGAVITSNYANWVQEKPDHLFTGLIGRTYNRVPGVPARFSGSLIGDKAALTITGAQTEDEAIYFCALWYSNHFVFGGGTKLTVLG", "Minimum concentration of binding to lung cancer cell line H838": 0.0125}]}]}
